Each block holds one binder with its values, some of them ahead of it.
Columns and labels:
[1] = biological target: T1, recombinant human PD-L1/His fusion protein (Novoprotein, Cat. No. C315) (human, UniProt Q9NZQ7 19-239); assay: BLI (Octet Red96), FIT1014-20a on AHC sensor, human PD-L1-his as analyte
T1 construct: also called recombinant human PD-L1-his protein
Description: (§1) The PD-L1 binding activities of FIT1014-20a were detected by biolayer interferometry using an Octet® Red sensing device (ForteBio, Red96). […] The association and dissociation curves were fitted to a 1:1 Langmuir binding model using FortéBio Data Analysis software (Pall) to produce kinetic rate constants Kon and Koff. The equilibrium dissociation constant KD (M) of the reaction between antibodies and related target proteins was then calculated by KD=koff/kon.

[2] = biological target: recombinant cyno PD-L1-his protein (cyno, UniProt G7PSE7 19-239); assay: BLI (Octet Red96), FIT1014-20a on AHC sensor, cyno PD-L1-his as analyte
Description: as §1

[3] = biological target: T2, human PD-L1 on cells (CHO-PD-L1, CHO-PD-L1-OS8) (human, UniProt Q9NZQ7 19-290); assay: FACS on CHO-PD-L1 cells, Alexa Fluor 647 anti-human IgG, MFI
T2 construct: whole, on cells; also called PD-L1 over-expressing cells; CD274
Description: Cell binding affinity of PD-L1/OX40 antibodies were measured against CHO (ATCC, #CCL-61) overexpressing human PD-L1 (CHO-PD-L1) and CHO overexpressing OX40 (CHO-OX40), respectively. Briefly, 5×10⁵ cells were seeded into each well of a 96-well plate (Corning, #3799). Cells were centrifuged at 400 g for 5 minutes and supernatants were discarded. For each well, 100 μl of 3× serial dilution of antibodies starting from 100 nM were then added and mixed with the cells. After 60 minutes of 4° C. incubation, plates were washed several times to remove excess antibodies. […] After another round of centrifugation and washing, cells were resuspended in FACS buffer for reading on a CytoFLEX Flow Cytometer (Beckman Coulter). Median Fluorescence Intensity (MFI) readouts were plotted against antibody concentration and analyzed with GraphPad Prism 8.0.

[4] = biological target: T2, human PD-L1 on cells (CHO-PD-L1, …); assay: cell-based receptor blocking assay, FACS: antibody against PD-1-mFc binding to CHO-PD-L1 cells, anti-mouse IgG detection
Description: Blocking of PD-1/PD-L1 binding was assessed in a cell based receptor blocking assay (RBA), 100 μl of 2×10⁵ cells/well of CHO-PD-L1 cells were added to a 96-well round-bottomed plate (Corning, Cat #3799), 50 μl serial diluted of antibody at 0.016 nM to 50 nM and 50 μl of 50 μg/ml PD-1-mFc (Novoprotein, #C754) were added to each well, mixed gently then incubated at 4° C. for 1 hour. The cells were washed and stained by Alexa Fluor® 647 anti-mouse IgG (1:500, Jackson ImmunoResearch, #115-606-008). Signals were read out by FACS and curves were fitted by GraphPad Prism 8.0.

[5] = biological target: Cyno OX40 (protein analyte in BLI, Table 10) (cyno); assay: BLI (Octet Red96), FIT1014-20a on AHC sensor, cyno OX40 as analyte
[6] = biological target: T3, recombinant human OX40/His fusion protein (Novoprotein, CB17) (human, UniProt P43489 29-216); assay: BLI (Octet RED96), antibody on AHC sensor, OX40/His as analyte, test group 3
T3 construct: Bought protein
T3 sequence: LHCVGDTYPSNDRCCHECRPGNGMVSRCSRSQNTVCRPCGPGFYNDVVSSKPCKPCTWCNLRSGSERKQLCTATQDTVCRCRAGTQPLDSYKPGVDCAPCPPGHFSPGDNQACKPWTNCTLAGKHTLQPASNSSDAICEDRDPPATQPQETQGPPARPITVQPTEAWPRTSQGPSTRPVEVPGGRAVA
Description: (§2) All 17 antibodies in Table 4 were expressed by transient transfection of HEK293 cell, purified by Protein A chromatography, and assayed for and ranked by dissociation rate constant (koff). Briefly, antibodies binding affinities and kinetics were characterized by Octet® RED96 biolayer interferometry (Pall FortéBio LLC). Antibodies were captured by Anti-hIgG Fc Capture (AHC) Biosensors (Pall) at a concentration of 100 nM for 120 seconds. After that, sensors were dipped into running buffer (1× pH 7.2 PBS, 0.05% Tween 20, 0.1% BSA) for 60 seconds to check the baseline, then dipped into recombinant human OX40/His fusion protein (Novoprotein, CB17) at assigned concentration for 200 seconds to measure binding, followed by dipped into running buffer for 600 seconds for dissociation. The assay was conducted in four test groups (as listed in Table 5) all containing the EM1007-044c chimeric antibody as the basis for normalization. The association and dissociation curves were fitted to a 1:1 Langmuir binding model using ForteBio Data Analysis software (Pall) to obtain the off-rate constants as shown in Table 5 below. The off-rate of each antibody was compared to that of the EM1007-mAb044c chimeric antibody in the same test group obtained in parallel to produce the corresponding off-rate ratio, serving as a normalized index. The normalized index of an antibody indicates higher affinity for human OX40.

[7] = biological target: T3, recombinant human OX40/His fusion …; assay: BLI (Octet RED96), antibody on AHC sensor, OX40/His as analyte, test group 4 (the reference itself)
Description: as §2, with “The normalized index of an antibody indicates higher affinity for human OX40.” left out

[8] = biological target: T3, recombinant human OX40/His fusion …; assay: BLI (Octet RED96), antibody on AHC sensor, OX40/His as analyte, test group 2 (the reference itself)
Description: as §2, with “The normalized index of an antibody indicates higher affinity for human OX40.” left out

[9] = biological target: T4, human OX40 on cells (CHO-K1-hOX40, CHO-OX40, Jurkat-OX40 reporter cells) (human, UniProt P43489 29-277); assay: FACS on CHO-K1-hOX40 cells
T4 construct: also called human OX40-transfected CHO cell; CD134
T4 sequence: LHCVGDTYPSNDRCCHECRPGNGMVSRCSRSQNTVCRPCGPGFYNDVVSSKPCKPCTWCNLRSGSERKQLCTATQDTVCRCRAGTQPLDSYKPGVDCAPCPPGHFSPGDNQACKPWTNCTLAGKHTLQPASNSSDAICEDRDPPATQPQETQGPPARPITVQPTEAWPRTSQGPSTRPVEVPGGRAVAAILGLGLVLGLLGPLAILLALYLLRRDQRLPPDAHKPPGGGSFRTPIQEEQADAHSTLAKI
Description: (§3) The purified chimeric antibody was designated EM1007-44c. Binding activity to human or Cyno OX40 on the cell surface was assessed by FACS. Briefly, 5×10⁵ cells were seeded into each well of a 96-well plate (Corning, #3799). Cells were centrifuged at 400 g for 5 minutes and supernatants were discarded. For each well, 100 μl of 3× serial dilution of antibody starting from 100 nM was then added and mixed with the cells. After 60 minutes of 4° C. incubation, plates were washed to remove excess antibody. […] After another round of centrifugation and washing, cells were resuspended in FACS buffer for reading on a CytoFLEX Flow Cytometer (Beckman Coulter). Median Fluorescence Intensity (MFI) readouts were plotted against antibody concentration and analyzed with GraphPad Prism 8.0. The ability of OX40 to activate downstream signaling was detected in a Jurkat-OX40-NF-κB luciferase assay. Briefly, high binding plates (Corning, #3361) were coated with 3× serial dilution of EM1007-44c starting from 100 nM at 4° C. overnight, washed, then seeded with 1×10⁵ cells per well of OX40-NF-κB reporter and incubate at 37° C. for 6 hours. At the end of incubation, ONE-Glo™ luminescence assay kit (Promega, Cat. #E6130) reagents were prepared and added according to the manufacturer's instructions. Plates were read for luminescence signals on Varioskan™ LUX microplate reader (ThermoFisher Scientific).

[10] = biological target: T3, recombinant human OX40/His fusion …; assay: BLI (Octet RED96), antibody on AHC sensor, OX40/His as analyte, test group 1 (the reference itself)
Description: as §2, with “The normalized index of an antibody indicates higher affinity for human OX40.” left out

[11] = biological target: T5, cyno OX40 on cells (CHO-K1-cOX40) (cyno); assay: FACS on CHO-K1-cOX40 cells
T5 construct: whole, on cells; also called Cyno OX40 on the cell surface
Description: as §3

[12] = biological target: T3, recombinant human OX40/His fusion …; assay: BLI (Octet RED96), antibody on AHC sensor, OX40/His as analyte, test group 2
Description: as §2

[13] = biological target: T3, recombinant human OX40/His fusion …; assay: BLI (Octet RED96), antibody on AHC sensor, OX40/His as analyte, test group 1
Description: as §2

[14] = biological target: T4, human OX40 on cells (CHO-K1-hOX40, …); assay: cell-based or functional assay
[15] = biological target: T3, recombinant human OX40/His fusion …; assay: BLI (Octet RED96), antibody on AHC sensor, OX40/His as analyte, test group 4
Description: as §2

[16] = biological target: T3, recombinant human OX40/His fusion …; assay: BLI (Octet RED96), antibody on AHC sensor, OX40/His as analyte, test group 3 (the reference itself)
Description: as §2, with “The normalized index of an antibody indicates higher affinity for human OX40.” left out

Sequence of recombinant cyno PD-L1-his protein (G7PSE7 entry or part of it): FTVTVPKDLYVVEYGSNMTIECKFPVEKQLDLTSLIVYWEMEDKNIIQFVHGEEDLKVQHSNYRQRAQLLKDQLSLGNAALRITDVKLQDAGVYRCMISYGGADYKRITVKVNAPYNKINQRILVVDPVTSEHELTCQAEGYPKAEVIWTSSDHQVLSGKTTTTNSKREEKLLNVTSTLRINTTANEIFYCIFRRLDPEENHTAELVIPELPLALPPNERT
T1 sequence (Q9NZQ7 19-239 limits assumed): as the sequence (G7PSE7 entry or part of it) above, with T33A, S34A, N62S, Q68R, R82Q, L173F, A185T, I192T, L215H counted along it
T2 sequence (Q9NZQ7 19-290): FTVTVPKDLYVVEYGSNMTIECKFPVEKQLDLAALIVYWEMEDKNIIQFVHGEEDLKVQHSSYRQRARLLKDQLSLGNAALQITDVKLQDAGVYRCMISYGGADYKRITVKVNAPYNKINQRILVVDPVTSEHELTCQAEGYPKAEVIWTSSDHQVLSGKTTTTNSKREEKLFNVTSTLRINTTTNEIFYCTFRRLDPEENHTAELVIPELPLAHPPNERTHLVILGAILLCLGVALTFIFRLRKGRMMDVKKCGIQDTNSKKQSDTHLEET

Kd [1]: 0.255 nM | koff [1]: 0.000158 s⁻¹ | kon [1]: 620000 M⁻¹ s⁻¹ | Kd [2]: 0.587 nM | koff [2]: 0.000276 s⁻¹ | kon [2]: 470000 M⁻¹ s⁻¹ | EC50 (read off the curve) [3]: ~1 nM | IC50 (read off the curve) [4]: ~0.8 nM | Kd [5]: 5.13 nM | koff [5]: 0.0004 s⁻¹ | kon [5]: 78000 M⁻¹ s⁻¹
B1: FIT1014-20a (bispecific antibody, human IgG1, kappa, L234A L235A)
chain 1: DIQMTQSPSSVSASVGDRVTITCKASQDVGTAVAWYQQKPGKAPKLLIYWASTRHTGVPSRFSGSGSGTDFTLTISSLQPEDFATYYCQQYSSYPYTFGGGTKVEIKRTVAAPSVFIFPPSDEQLKSGTASVVCLLNNFYPREAKVQWKVDNALQSGNSQESVTEQDSKDSTYSLSSTLTLSKADYEKHKVYACEVTHQGLSSPVTKSFNRGECEVQLQQSGAEVKKPGSSVKVSCKASGHAFSSSWMNWVKQRPGKGLEWIGRIYPGDEITNYNAKFKDKATLTADKSTSTAYMELSSLRSEDTAVYYCARDLLMPYWGQGTLVTVSSASTKGPSVFPLAPSSKSTSGGTAALGCLVKDYFPEPVTVSWNSGALTSGVHTFPAVLQSSGLYSLSSVVTVPSSSLGTQTYICNVNHKPSNTKVDKKVEPKSCDKTHTCPPCPAPEAAGGPSVFLFPPKPKDTLYITREPEVTCVVVDVSHEDPEVKFNWYVDGVEVHNAKTKPREEQYNSTYRVVSVLTVLHQDWLNGKEYKCKVSNKALPAPIEKTISKAKGQPREPQVYTLPPSREEMTKNQVSLTCLVKGFYPSDIAVEWESNGQPENNYKTTPPVLDSDGSFFLYSKLTVDKSRWQQGNVFSCSVMHEALHNHYTQKSLSLSPGK
chain 2: EVQLVQSGSELKKPGASVKVSCKASGYTFTTYGINWVRQAPGQGLEWMGYIYIGNAYTEYNEKFKGRFVFSLDTSVSTAYLQISSLKAEDTAVYYCARDLMVIAPKTMDYWGQGTTVTVSSASTKGPSVFPLAPSSKSTSGGTAALGCLVKDYFPEPVTVSWNSGALTSGVHTFPAVLQSSGLYSLSSVVTVPSSSLGTQTYICNVNHKPSNTKVDKKVEPKSC
chain 3: DIVMTQTPLSLPVTPGEPASISCRSSKSLLYSNAITYLYWYLQKPGQSPQLLIYQMSNLAPGVPDRFSSSGSGTDFTLKISRVEAEDVGVYYCAQNLELPFTFGQGTKLEIKRTVAAPSVFIFPPSDEQLKSGTASVVCLLNNFYPREAKVQWKVDNALQSGNSQESVTEQDSKDSTYSLSSTLTLSKADYEKHKVYACEVTHQGLSSPVTKSFNRGEC
notes: Hexamer of three component polypeptide chains (two of each); outer Fab anti-PD-L1 (HuEM0005-86-64), inner Fab anti-OX40 (HuEM1007-44-16); also called FIT1014-20a (YTE); PD-L1/OX40 FIT-Ig

EC50 (read off the curve) [3]: ~0.8 nM | IC50 (read off the curve) [4]: ~0.8 nM
B2: HuEM0005-86-64 (antibody, human IgG1, kappa, L234A L235A, V domains shown)
VH: EVQLVQSGSELKKPGASVKVSCKASGYTFTTYGINWVRQAPGQGLEWMGYIYIGNAYTEYNEKFKGRFVFSLDTSVSTAYLQISSLKAEDTAVYYCARDLMVIAPKTMDYWGQGTTVTVSS
VL: DIQMTQSPSSVSASVGDRVTITCKASQDVGTAVAWYQQKPGKAPKLLIYWASTRHTGVPSRFSGSGSGTDFTLTISSLQPEDFATYYCQQYSSYPYTFGGGTKVEIKR
notes: Humanized anti-PD-L1; same as HuEM0005-86-21 except Q1E and C82aS (Kabat) in VH; also called parental anti-PD-L1 monoclonal antibody; parental PD-L1 antibody

koff [6]: 0.000305 s⁻¹ | Normalized Index (off-rate ratio to EM1007-mAb044c) [7]: 100% | Normalized Index (off-rate ratio to EM1007-mAb044c) [8]: 100% | EC50 [9]: 2.6 nM | Normalized Index (off-rate ratio to EM1007-mAb044c) [10]: 100% | EC50 [11]: 2.11 nM | koff [12]: 0.000318 s⁻¹ | koff [13]: 0.000336 s⁻¹ | OX40-Jurkat-NF-κB-Reporter, EC50 [14]: 0.43 nM | OX40-Jurkat-NF-κB-Reporter, Maximal fold change [14]: 1.52 fold | koff [15]: 0.000279 s⁻¹ | Normalized Index (off-rate ratio to EM1007-mAb044c) [16]: 100%
B3: EM1007-44c (antibody, human IgG1, V domains shown)
VH: QVQLQQSGPELVKPGASVTISCKASGHAFSSSWMNWVKQRPGKGLEWIGRIYPGDEITNYNGKFKDKATLTADKSSSTAYMQLSSLTFEDSAVYFCARDLLMPYWGQGTLVTVSA
VL: DIVMTQTAFSNPVTLGTSASISCRSSKSLLYSNGITYLYWYLQKPGQSPHLLIYQMSNLAPGVPDRFSSSGSGTDFTLRISRVEAEDVGIYYCAQNLELPFTFGSGTKLEIK
notes: also called EM1007-mAb044c; EM1007-044c

Reference: patent US20250282881A1 (SHANGHAI EPIMAB BIOTHERAPEUTICS, published 2025)
